Where a chain is given by its changes, count along the chain named. Names may count otherwise.

The results in this text go back to EP1674110A1 (NOVO NORDISK A/S, dated 2000).

The target of experiment [1] is T1, bovine pancreatic trypsin inhibitor (bovine, UniProt P00974 36-93). In words: scintillation proximity assay with 125I-BPTI.
Experiment [2] concerns the target T1, bovine pancreatic trypsin inhibitor. In words: not described.

B1: native human heparin-binding protein (other)
chain: IVGGRKARPRQFPFLASIQNQGRHFCGGALIHARFVMTAASCFQSQNPGVSTVVLGAYDLRRRERQSRQTFSISSMSENGYDPQQNLNDLMLLQLDREANLTSSVTILPLPLQNATVEAGTRCQVAGWGSQRSGGRLSRFPRFVNVTVTPEDQCRPNNVCTGVLTRRGGICNGDGGTPLVCEGLAHGVASFSLGPCGRGPDFFTRVALFRDWIDGVLNNPGP
notes: also called HBP; hHBP
In the case of B1, the binding result in experiment [1] is on record as “binds”.

B2: [G175Q]HBP (other)
chain: B1 chain with G175Q
notes: also called [G175Q]HBP mutant
With B2, the binding result in experiment [1] is recorded as “no binding”.

B3: [R23S,F25E]HBP (other)
chain: B1 chain with R23S, F25E
notes: Expressed in sf9 insect cells; also called [R23S,F25E]HBP mutant
Consider B3, for which the binding result in experiment [1] is given as “binds”.

B4: HBP mutant (G175N) (other)
chain: B1 chain with G175N
On to B4, for which the binding result in experiment [2] is reported as “no binding”.
